Assay results published in the nanobody polyreactivity screen of Harvey et al. (2022).

Assay: yeast display, Sf9 membrane polyspecificity reagent, FACS + sequencing; frameworks hold sequencing errors
Summary of the method: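 After 36–48 hours of galactose induction, yeast (Saccharomyces cerevisiae BJ5465) displaying a synthetic nanobody library were stained at 4 °C for 1 hour with 10% biotinylated, detergent-solubilized Sf9 membrane reagent. Streptavidin microbeads enriched the stained cells before FACS sorting into low and high (top ~1%) gates on anti-HA and streptavidin fluorescence. Each clone's polyreactivity label reflects its gate of origin.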

Sequence: QVQLVESGGGLVQAGGSLRLSCAASGRTFRSYDMGWYRQAPGKERELVAAISEDGGYTYYADSVKGRFTISRDNAKITVYLQMNSLKPEDTAVYYCAKDRPGPLRWWFLYGYWGQGTQGTVSS
- polyreactivity (PSR sort gate): low polyreactivity

Sequence: QVQLVESGGGLVQAGGSLRLSCAASGRTFSVNAMGWYRQAPGKEREFVAAISKSGGSTYYADSVKGRFTISRDNAKNTVYLQMNSLKPEDTAVYYCAADSNSVYPFDYWGQGTQVTVSS
- polyreactivity (PSR sort gate): high polyreactivity

Sequence: QVQLVESGGGLFQAGGSLRLICAASGFIFGWYDMGWYRQAPGKERELVAAIDSGGSTNYADSVKGRFTISRDNAKYTVYLQMNSLKPEDTAVYYCAADHHDVWTEYYYWGHGTQVTVSS
- polyreactivity (PSR sort gate): low polyreactivity

Sequence: QVQLVESGGGLVQAGGSLRLSCAASGFIFGDYAMGWYRQAPGTERELVAAIFSGGSTYYADSVKGRFTISRDNAKNTVYLQMNSLKPEDTAVYYCAARFARYDWSMYYWGQGTQVTVSS
- polyreactivity (PSR sort gate): low polyreactivity

Sequence: QVQLVESGGGLVQAGGSLRLSCAASGRIFDRNAMGWYRQAPGKERELVAAISWSGGRTYYADSVKGRFTISRDNAKNTVYLQMNSLKPEDTAVYYCAADHYPWWAWEFDYWGQGTQVTVSS
- polyreactivity (PSR sort gate): low polyreactivity

Sequence: QVQLVESGGGLVQAGGSLRLSCAASGSIFPRYAMGWYRQAPGKERELVATISQSGGSTYYADSVKGRFTISRDSAKNTVYLQMNSLKPEDTAVYYCAAKVYRSAYYVGKYYPYYYWGQGTQVTVSS
- polyreactivity (PSR sort gate): high polyreactivity

Sequence: QVHLVESRGVLVQAGCSLRLSCAASGRIFTDYAMGWYRQAPRKERELVAAISGSGGSTYYADSVKVRFSISRDNAKNNVYLQMNSLKPEDTAVYYCAARVARRYEWGQGTQVTVSS
- polyreactivity (PSR sort gate): high polyreactivity

Sequence: QVQLVESGGGLVQAGGSLRLSCSASGIIFDVNALGWYRQSPGKERELVADITYSVGSTSYADSVKGRFTISRDNAKNTVYLQMNSLKPEDTAVYYCAAVYSHSGGEGIKYDYWGQGTQVTVSS
- polyreactivity (PSR sort gate): low polyreactivity

Sequence: QVQLVESGGGLVQAGGSLRLSCAASGIIFSSNAMGWYRQAPGKERELVAAISRRGGSTYYADSVKGRFTISRDNAKNTVYLQMNSLKPEDTAVYYCNALLYNGAGYDYWGQGSQVTVSS
- polyreactivity (PSR sort gate): high polyreactivity

Sequence: QVQLVESGGGLVQAGGSLRLSCAASGRIFSRNAMGWYRQAPGKERELVAAISGSGTSTYYAVSVKGRFTISRDNAKNTVYLQMNSLKPEDTAVSYCAADYPAVISIRRYDYWGQGTQVTVSS
- polyreactivity (PSR sort gate): low polyreactivity

Sequence: QVQLVESGGGLVQAGGSLRLSCAASGNTFYGYVMGWYRQAPGKERELVAAISWSGGRTYYADSVKGRFTISRDNAKNTVYLQMNSLKPEDTAVYYCAAVLLYYIYDYWGQGTQVTVSS
- polyreactivity (PSR sort gate): low polyreactivity

Sequence: KVQLVESGGGLVQAGGSLRLSCAASGSIISGNAMGWYRQAPGKERELVAAISRSGGRTYYADSVKGRFTISRDNAKNTVYLQMNSLKPEDTAVYFCAAGRSLRGDYWGQGTQVTVSS
- polyreactivity (PSR sort gate): high polyreactivity

Sequence: QVQLVESAGGLVQAGGILRLRCAASGFTFTSNAMGWYRQAPGKEREFVADISNIGGDTTYADSVKGRFTISRDNAKNTVYLQMNSLNPEDTAVYYCNADFAFIENDYCGQGTQVTVSS
- polyreactivity (PSR sort gate): low polyreactivity

Sequence: QVQLVESGGGLVQAVGILRLSCASYGRTFVANAMGWYIQAPGKERELVAGITCGDSTYYADSVKWRFTISRDNAKNTVYLQMNRLKPEDTAVYYCSAPYNFWNFFDLIYVWDGYDYWGQGTQVTVSS
- polyreactivity (PSR sort gate): low polyreactivity

Sequence: QVQLVESGGGLVQAGGSLRLSCAASGFIFRYNAMGWYRQAPGKEREFVAAISQGGASTYYADSVKGRFTISRVNAKNTVYLQINSLKPEDTAVYYCAREPSIFTPSYDYWGQGTQVTVSS
- polyreactivity (PSR sort gate): low polyreactivity

Sequence: QVQLVESGRGLVQAGRSLRLSCAASGFIFETYPMGWYRQAPGKVRELVAAISRGASTYYADSVKGRFTISRDNAKNTVYLQMNSLTPEDTAVYNCAAQQGISYGTGVSATNPMDYWGQGTHVTVSS
- polyreactivity (PSR sort gate): low polyreactivity

Sequence: QVQLVESGGGLVHAGCSLRLSCDASGRIFKNYAMGWYRQAPGKERELVAAISWSGGRTYYADSVKGRFTISRDYAKNTVYLQMHRLKPEDTEVYYCATAARRGPTSIEPFGYGSWGQGTQVTVSS
- polyreactivity (PSR sort gate): high polyreactivity

Sequence: QVQLVESGGGLVQAGGSLRLSCAASGLTFVKNVMGWYRQAPGKERELVAAISRRGGSTYYADSVKGRFTISRDNAKNTVYLQMNSLKPEDTAVYSCNAVLNHLSYIYPAVGYWGQGTQVTVSS
- polyreactivity (PSR sort gate): high polyreactivity

Sequence: QVQLVESGGGLVQAGGSLRLSCAASGFTFVRYAMGWYRQAPGKERELVAAISRRGGSTYYADSVKGRFTISRDNAKNTVYLQMNSLKPEDTAVYYCAARAPYRRVRMNYWGQGTQVTVSS
- polyreactivity (PSR sort gate): high polyreactivity

Sequence: QDQLVESGGGLVQAGGSLRLSCASSGSTFPWYTMGWSRQAPGKERELVAAIDGSAGDTYYADSVKGRVTISRDNAKNTVYLQMNSLKPEDTAVYYCATRTWRWGYLHYDYWGQGTQVTVSS
- polyreactivity (PSR sort gate): low polyreactivity

Sequence: QVQLEESGGGLVQAGGSLRLSCAASGSIFWGYAIGWYRQAPGKERELVAAISNTGSTNYADSVKGRFTISRDNAKNTVYLQMNSLKPEDTAVYYCNASYTYGEMDYWGQGTQVTVSS
- polyreactivity (PSR sort gate): low polyreactivity

Sequence: QVQLVESGGGLVQAGGSLRLSCAASGRIFYSNTMGWNRQAPGKEREMVATITSGGSTNYADSVKGRFTISRDNAKNTVYFQMNILKPEDTAVYYCAADAYATHPFRSESDYWGQGTQVTVSS
- polyreactivity (PSR sort gate): low polyreactivity

Sequence: QVQLVESGGGLVQAGGSLRLSCAASGFNIASYDMGWYRQAPGKERELVAAISKGGGRTYYADSVKGRFTISRDIAKNTVYLQMNSLKPEDTAVDYCAAEYRGYLHYHFQYLFDYWGQGTQVNVSS
- polyreactivity (PSR sort gate): low polyreactivity

Sequence: QVQLVESGGGLVQAGGSLRLSCAASGSTFIVYAMGWYRQAPGKERELVAAITASGGSTYADSVKGRFTISRDNAKNTVYLQMNSLKPEDTAVYYCAARRWSRKYRKYDYWGQGTQVTVSS
- polyreactivity (PSR sort gate): high polyreactivity

Sequence: QVQLQESGGGLVQAGGSLRLSCAASGTISQEDWKGRYRQAPGKEREFVAAIGLGSNTNYADSLKGRFTISRDNAKNSVYLQMNSLKPEDTAVYYCAVSVWQYSDHVYRGQGTQVTVSS
- polyreactivity (PSR sort gate): low polyreactivity

Sequence: QVQLVESGGGLVQAGGSLRLSCAASGNIFYPYAMGWYRQAPGKERELVAAISWSDGSTYYADSVKGRFTISRDNAKNTVYLQMNILKPEDTAVYYCAAEAYISNYYGRDYWGQGTQVTVSS
- polyreactivity (PSR sort gate): high polyreactivity

Sequence: QVQLVESGGGLVQAGGSLRLSCAASGSIFSANAMGWYRQAPGKERELVAAINSGGGTYYADSVKGRFTISRDNAKNTVFLQMNSLKPEDTAVYYCATDAVYIKGKYYTHEYWGQGTQVTVSS
- polyreactivity (PSR sort gate): high polyreactivity

Sequence: QVQLVESGGGLVQAGGSLRLSCAASGLTFIYYAMGWYRQAPGKERELVARINNGDNTYYADSVKGRFTISRDNAKNTVYLQMNRLNPEDTAVYYCAAARYSRLSRTRPGKYGYWGQGTQVTVSS
- polyreactivity (PSR sort gate): low polyreactivity

Sequence: QVQLVESGGGLDQAGGSLRLSCAASGRTFFYNAMGWYRQAPGKESEWDAAISYSGGSTYYADSVKGRFTISRDNAKNTVYLQMNSLKPEDTAVYYCAARDKTRSVRRTGMDYWGQGTQVTVSS
- polyreactivity (PSR sort gate): high polyreactivity

Sequence: QVQLVESGGGLVQAGGSLRLSCAASGFIFSRNAMGWYRQAPGKERELVAAITRGGITYYADSVKGRFTISRDNAKNTVYLQMNSLKPEDTAVYYCAAYRTYQAYTGSHYYYWGQGTQVTVSS
- polyreactivity (PSR sort gate): high polyreactivity

Sequence: QVQLVESGGGLVQAVGSLRLSCAASGSTFPYYTMGWYRQAPGKERELVAAITASGGSTYYADSVKGRVTISRDNAKNTVYLQMNSLKPEDTAVYYCAATCLNHVRKSRGYDYWGQGTQVTVSS
- polyreactivity (PSR sort gate): high polyreactivity

Sequence: QVQLVESGGGLVQAGGSLRLSCAASGRTSYGYAIGWYRQAPGKERELVAAITYGGGSTYYADSVKGRFTISRDNEKNTVYLQMNSLKPEDTAVYYCAADRTGSTLYTIRYYYWGQGTQVTVSS
- polyreactivity (PSR sort gate): low polyreactivity

Sequence: QVQLVESGGGLVQAGGSLRLSCAASGRICTRYMGWYRQAPGKERELVATINWSGGSTYYADSVKGRFTISRDNAKNTVYLQMNSLKPEDTAVYYGNARNVDFYYVQYNGAKIFDYWGQGTQVTVSS
- polyreactivity (PSR sort gate): low polyreactivity

Sequence: QVQHVESGGGLVQAGGSLLLSCAASGSIFASYAMGWYRQAPGKEREFVASISRSGGRTYYADSVKGRFTISRDNAKNTVYLQMKSLKPEDTAVYYCAAQPSSYVYYRQPFHYWGQGTQVTVSS
- polyreactivity (PSR sort gate): high polyreactivity

Sequence: QVQLVESGGGLVQAGGSLRLSCAASGRIFNVYAMGWYRQAPGKERELVAAITYSGGSTYYADSVKVRITISRDNAKNSVYLQMIFLKPEDTAVYYCNARSSKRSSRGYDYWGQGTQVTVSS
- polyreactivity (PSR sort gate): high polyreactivity

Sequence: QVQLVESGGGLVQAGGSLRLSCAASGITIYRNAMGWYRQAPGKEMELVAAITRNGGRTYYADSVKGRFTISRDNAKNTVYLQMNSLKPEDTAVDYCAADSGTRNLASYRYYYWGQGTQVTVSS
- polyreactivity (PSR sort gate): high polyreactivity

Sequence: QVQLVESGGGLVQAGGSLRLSCAASGSTFYNYAMGWYRQEPGKERELVAAINYSGGDTYYADSVKGRFTISRDNAKNTVYLQMNSLKPEDNAVYYCNAEWDYYSSNPVQNDYDYWGQGTQVTVSS
- polyreactivity (PSR sort gate): high polyreactivity

Sequence: QVQLVESGGGLVQAGGRLRLSCAASGRIFTRYAMGWYRQAPGKERELVAAINYRGSSTYYADSVKGRFTISRDNAKNTVYLQMNSLKPEDTAVYYCNTYGQTDTYWRYYYWGQGTQVTVSS
- polyreactivity (PSR sort gate): high polyreactivity

Sequence: QVQLVESGGGLVQAGGSLRLSCAASGYTFFYAMGWYRQAPGKERQLVAGISRAGRTKYADSVKGRFTISRDNAKNTVYLQMNSLKPEDTAVYYCAAYARVSSSRFDYWGQGTQVTVSS
- polyreactivity (PSR sort gate): high polyreactivity

Sequence: QVQLVESGGGLVQAGGSLRLSCAASGSTFGFNAMGWYRQAPGKERELVAAINSGSTTYADSVKGRFTISRDNAKNTVYLQMNSLKPEDTAVYYCAARYRYRYGYYYWGQGTQVTVSS
- polyreactivity (PSR sort gate): high polyreactivity

Sequence: QVQLVESGGGLVQAGGSLRLSCAASGIIFFYYVMGWYRQAPGKERELVAAISSDGSSTYYADSVKGRFTISRDNAKNTVNLQMNSQKPEDTAVYYCAAELILYPYDFNFWGQGTQVTVSS
- polyreactivity (PSR sort gate): high polyreactivity

Sequence: QVQLQESGGGLVQAGGCLRLSCAASGTISTAYQMGWYRQAPGKEREFVAAIGYGAITNYADSVKGRFTISRDNAKNTVYLQMNSLKPEDTAVYYCAARRYVAGRGAYDYWGQGTQVTLSS
- polyreactivity (PSR sort gate): low polyreactivity

Sequence: QVQLVESGGGLVQAGGSLRLSCAASGSNFNVYVMGWYRQAPGKERELVAAISWGDGSTSYADSVKGRFTISRDHAKNTVYLQMNSLKPEDTAVYYCNRRHSYPYDYWGQGTQVTVSS
- polyreactivity (PSR sort gate): high polyreactivity
